Source: the supplement of paper PMC9942255
Where “and” joins values, the source holds several entries; their conditions need not be identical. Equal entries are not always repeated.

Tested on: Bacillus subtilis DB104 (SP-AmyQ fusion secretion)
Assay: AmyQ secretion efficiency, weighted average sort bin (1 = best secretion, 10 = worst) (bin number (weighted average, 1-10)); higher = lower secretion efficiency
Method in brief: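 Occupied alginate beads were sorted by large-particle flow cytometry into 10 equally populated bins according to green/red fluorescence ratio. Each bead (~65 nL) held fluorescein-starch and about 0.3 cells of a B. subtilis DB104 library expressing mature AmyQ fused to designed signal peptides from the amyE locus, and beads were grown about 13 h at room temperature and stained with nile red before sorting. Bin amplicons were Illumina-sequenced, and the secretion score is the read-frequency-weighted average bin number, normalised to beads per bin, excluding low-abundance sequences.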

Sequence | AmyQ secretion efficiency
MHLIRAAGAVCLAVVLIAGCRFNEDQHQAEPENT | 6.25
MKKAAAVLLSLGLVFGFSYGAGHVAEAATS | 2.5
MKRTWNVCLTALLSVLLVAGSVPFHAEAKKK | 2.67
MKSKGSIMACLILFSFTITTFINTETLSAFSN | 6.34
MPYLKRKGYQYQSGLFMSLFAVTATASAQTG | 4.4
MNKFLKSNFRFLLAAALGISLLVLFVIFITFASSNFIKASND | 4.18
MFNRLFRVCFLAALIMAFVFFIVFTLPNSVYAQKP | 2.03
MRKKCSSMSFTSVCLWILVLLLSCLSGKSAYAATS | 3
MNFKKTVVSALSISALALVSVSGVASAHEI | 3.04
MKKSQYFIVFICFFVLFSVHPIALAAADS | 3.9
MKKLLAAGIIGLLTVSIASPMFAAEK | 3.35
MTKLKMLSMLRKKKRRLFIFSSQALAVQY | 6.63
MKRFLIGAGVAASGWFIADHQTHSQEM | 6.73
MKSKGSIMSACLILFSFTITTFINTETISAFSN | 3.07
MKKCLLFLTTIALILSLSTNAFYKNT | 8.02
MKKRLIAPMLLSAASLAFFAMSGSAQAAEE | 2.23
MNMSITYSLLALLAVVAFAFTDSSKAKAAEA | 2.51
MKKGIIRFLLVSFVLFFALSSTGITGVQAAPA | 1.83
MKRKRLFIFSAILTLSIFAPNETFAQTA | 1.57
MKKVMLATALFLGLTPAGANARKR | 6.61
MKKKQVMLALTAAAGLGLTALHSAPAEKAAPL | 6.32

Sequence | AmyQ secretion efficiency
MKKVLMAFIICLSLILSVLAAPPSGPKAESV | 3.78
MKKQSYSATTAVVLGSTLFAGAASAQSI | 5.86
MKKAAAVLLSLGLVFKFSYGAGHVAEAKTK | 3.2
MKRLLSTLLIGIMLLKRKRRRAFAKQD | 8.09
MLTKRLLTIYIMLLGLIAWFPGAAQGEEK | 2.56
MKSKWMSRKLLVAVGFSFTQVMVHAGET | 6.44
MMIKQCKKCLSLLVFGTTAAHAEET | 7.22
MIAYFGKCLLLVTIMFLGVLFGMFQANHG | 6.57
MKKISSVMLATALFLGLTPAGANAADL | 3.26
MLKKKWMVGLLAGCLAAGTTSAAFTFFTGFSYNAFATEN | 7.04
MKSKGSIMACLILFSFTITTFINTETISVFSN | 7.71
MKQFAITLSVLCALILLVPTLLVIPFVSAAEAGASV | 3.34
MKKEGKQYSRLCLSLSPLVSTNEVFAATT | 7.68
MKKKLKRKKRRSAIVGTTLVVTPAEAATI | 6.61
MRSKKTWISLLFALTLIFTMAFSNMSAQAAGK | 3.25
MKMKSGMEQAVSVLLLLSRLPVQASLTSE | 7.57 and 7.03
MKKELLASLVLCLSLDDDDETNEVFAATT | 5.98
MKRLALGAALTIAPLSFASAEEN | 5.98
MPIKKKVMMCLAVTLVFGSMSFPTLTNSGNFKE | 5.35
MMKKLFHSTLIVLLFFSFFGVQPIHAATR | 2.55
MKKRLIAPMLLSAASLAFFAMSGSAQAARR | 6.96

Sequence | AmyQ secretion efficiency
MRMLWRSLALCGLALTLAPCWQAAEP | 5.47
MKKAFLVFLSVVLVTTVFLVKQQESVAQGKQL | 3.58
MGLGKKLSVAVAASFMSLSISLPGVQEAEG | 6.02
MLKKIALTLCPAIVGSLLFFTAPASAHVE | 2.48
MHLIRAAGAVCLAVVLIAGCRFNEDQHQAESENT | 3.48
MKFVKRRIIALVTILMLSVTSLFADEEEAKAAEH | 2.36
MKKKMLNLFLAAGLTASAIVGTTLVVTPAEAATI | 4.26
MRNLTKFLLLLAFLCMAAQMVFVTHASAEES | 3.58
MKKKQVMLALTAAAGLGLTALHPGPSAKAAPL | 1.84
MKKRKITIAMLILAGIALFVFISPLKSHKT | 6.94
MRKKCSKCKWSTTSLLSCLSGKSAYAATS | 7.94
MKKRFSLIMMTGLLFGLTSPAFAAPK | 1.77
MFNRLFRVCFLAALIMAFTLPNSVYQQKP | 5.8
MTMLRKIIGWILLLCIIPLFAFTVIPSGKEV | 8.07
MKVLLSALLLLLFAFEPSVSGKKL | 6.17
MKKKLAAGLTASAIVGTTLVRKKKAEAATI | 8.06
MAIIIAIIAAVIVIAALITFNVRNKSPG | 6.36
MNKLKRLSMLTVMIASVFIFSSHVLAAQY | 2.99
MRHKSITFILAVVVIIIIGNMIGGGGGSEATSK | 6.79
MVKKWLIMFAVMLGVLMTFTYSASAVGV | 1.93
MKKLVLCVSILAVILSGVMLTQLS | 6.44
